{
  "source": "patent US8357701B2",
  "about": "“Galactokinase inhibitors” (University of Miami, priority 2007, dated 2013)",
  "key": {"[1]": {"test_system": "T1, O=C[C@H](O)[C@@H](O)[C@@H](O)[C@H](O)CO", "T1 construct": "made in house; host or cells: Escherichia coli HMS174 (DE3), plasmid pET15b", "assay": "standard pyruvate kinase/lactate dehydrogenase-coupled GALK assay", "type": "biochemical", "details": "other: substrates of purified human GALK", "excerpt": "As the percentage of substrate conversion can have significant impact on the accuracy of IC50 determination, the preferred approach is to determine reaction rates at initial velocity (i.e., zero substrate conversion). […] In this assay, the amount of galactose present in the reaction is kept in excess, whereas ATP consumed by the galactokinase reaction is recycled by the pyruvate kinase reaction. As a result, the reaction rates calculated will be close to initial velocity.\nAs the percentage of substrate conversion can have significant impact on the accuracy of IC50 determination, the preferred approach is to determine reaction rates at initial velocity (i.e., zero substrate conversion). […] The dose response of the selected compounds was analyzed using the standard pyruvate kinase/lactate dehydrogenase-Coupled assay. In this assay, the amount of galactose present in the reaction was kept in excess, whereas ATP consumed by the galactokinase reaction was recycled by the pyruvate kinase reaction. As a result, the reaction rates calculated were close to initial velocity."}, "[2]": {"test_system": "Nc1ncnc2c1ncn2[C@@H]1O[C@H](COP(=O)(O)OP(=O)(O)OP(=O)(O)O)[C@@H](O)[C@H]1O", "assay": "purified protein, by the assay type", "details": "other: substrates of purified human GALK"}},
  "data": [
    {"substance": "human GALK (Homo sapiens)", "values": [
      {"measurement": "Km", "setting": "[1]", "result": 210, "unit": "µM"},
      {"measurement": "Km", "setting": "[2]", "result": 42, "unit": "µM"}
    ]}
  ]
}
